Assay in all cases: cell-based or functional assay
For one test, the target named is human GLP-1 receptor (human, UniProt P43220 24-463).
Test [1] has as its target T1, human glucose-dependent insulinotropic peptide (gastric inhibitory polypeptide) receptor (human) (UniProt P48546).
T1 sequence (looked up): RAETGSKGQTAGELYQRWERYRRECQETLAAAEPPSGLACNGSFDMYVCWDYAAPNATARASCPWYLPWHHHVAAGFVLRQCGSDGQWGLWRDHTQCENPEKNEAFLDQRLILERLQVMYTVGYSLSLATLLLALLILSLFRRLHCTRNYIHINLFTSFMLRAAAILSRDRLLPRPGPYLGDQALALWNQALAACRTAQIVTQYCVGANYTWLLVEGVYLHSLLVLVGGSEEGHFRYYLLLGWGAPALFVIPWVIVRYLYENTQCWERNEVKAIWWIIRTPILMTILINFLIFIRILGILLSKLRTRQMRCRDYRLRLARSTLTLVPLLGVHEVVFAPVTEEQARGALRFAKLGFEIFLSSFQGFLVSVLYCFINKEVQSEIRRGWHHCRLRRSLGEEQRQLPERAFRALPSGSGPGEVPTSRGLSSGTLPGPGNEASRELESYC

A further test addresses human glucagon receptor (human, UniProt P47871 26-477).

Numbered stars: 1 amine (or outer) side, 2 acyl side, 3 side chain; on linkers, the order of the positions; unused ones are H or OH. Side chains are listed from the residue outwards. Ends that are not written are not given here. * marks the point of attachment. γGlu = O=C(O)[C@H](CCC(=O)[*:2])N[*:1]; Palmitoyl = CCCCCCCCCCCCCCCC(=O)*

human glucagon receptor, sequence (P47871 26-477): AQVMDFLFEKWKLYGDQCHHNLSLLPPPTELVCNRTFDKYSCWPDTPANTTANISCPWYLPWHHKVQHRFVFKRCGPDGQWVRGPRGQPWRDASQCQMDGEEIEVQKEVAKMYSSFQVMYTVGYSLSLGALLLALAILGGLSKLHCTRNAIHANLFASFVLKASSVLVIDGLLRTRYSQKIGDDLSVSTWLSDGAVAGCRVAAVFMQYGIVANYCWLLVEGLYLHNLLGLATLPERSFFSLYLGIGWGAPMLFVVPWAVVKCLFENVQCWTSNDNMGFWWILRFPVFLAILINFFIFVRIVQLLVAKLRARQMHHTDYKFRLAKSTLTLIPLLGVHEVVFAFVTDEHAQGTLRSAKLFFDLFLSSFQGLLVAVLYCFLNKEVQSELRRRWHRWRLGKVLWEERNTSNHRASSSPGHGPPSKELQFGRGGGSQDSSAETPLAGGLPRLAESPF
human GLP-1 receptor, sequence (P43220 24-463): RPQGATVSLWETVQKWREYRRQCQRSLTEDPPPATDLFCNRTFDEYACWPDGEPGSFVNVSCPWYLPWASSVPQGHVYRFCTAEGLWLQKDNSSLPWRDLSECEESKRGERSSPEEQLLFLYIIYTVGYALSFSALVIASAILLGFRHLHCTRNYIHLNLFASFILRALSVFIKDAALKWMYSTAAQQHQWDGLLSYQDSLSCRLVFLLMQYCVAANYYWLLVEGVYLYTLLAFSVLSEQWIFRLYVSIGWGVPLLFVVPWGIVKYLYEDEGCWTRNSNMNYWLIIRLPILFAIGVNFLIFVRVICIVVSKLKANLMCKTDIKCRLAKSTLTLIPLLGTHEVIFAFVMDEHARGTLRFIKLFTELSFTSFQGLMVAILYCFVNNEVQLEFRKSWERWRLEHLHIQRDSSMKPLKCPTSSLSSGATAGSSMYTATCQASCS

B1: g717 (peptide)
peptide: HSQGTFTSDK([γGlu-Palmitoyl])SKYLDSRRAQDFVQWLEAGG-NH2
modifications: N-terminus assumed
SMILES: CCCCCCCCCCCCCCCC(=O)N[C@@H](CCC(=O)NCCCC[C@H](NC(=O)[C@H](CC(=O)O)NC(=O)[C@H](CO)NC(=O)[C@@H](NC(=O)[C@H](Cc1ccccc1)NC(=O)[C@@H](NC(=O)CNC(=O)[C@H](CCC(N)=O)NC(=O)[C@H](CO)NC(=O)[C@@H](N)Cc1c[nH]cn1)[C@@H](C)O)[C@@H](C)O)C(=O)N[C@@H](CO)C(=O)N[C@@H](CCCCN)C(=O)N[C@@H](Cc1ccc(O)cc1)C(=O)N[C@@H](CC(C)C)C(=O)N[C@@H](CC(=O)O)C(=O)N[C@@H](CO)C(=O)N[C@@H](CCCNC(=N)N)C(=O)N[C@@H](CCCNC(=N)N)C(=O)N[C@@H](C)C(=O)N[C@@H](CCC(N)=O)C(=O)N[C@@H](CC(=O)O)C(=O)N[C@@H](Cc1ccccc1)C(=O)N[C@H](C(=O)N[C@@H](CCC(N)=O)C(=O)N[C@@H](Cc1c[nH]c2ccccc12)C(=O)N[C@@H](CC(C)C)C(=O)N[C@@H](CCC(=O)O)C(=O)N[C@@H](C)C(=O)NCC(=O)NCC(N)=O)C(C)C)C(=O)O
B1: the figures for the cAMP EC50 (assay 1) (with human GLP-1 receptor; in test [1]; with human glucagon receptor) were 0.00577 nM, 1.48 nM and 0.000455 nM, respectively.

B2: g840 (peptide)
peptide: HSQGTFTSDYSKYLDSERARDFVAWLEAGG-NH2
Take B2: the cAMP EC50 (assay 1) was 0.145 nM with human GLP-1 receptor, 102 nM in test [1] and 0.0053 nM with human glucagon receptor.

B3: g867 (peptide)
peptide: HSQGTFTSDYSKYLDSK([γGlu-Palmitoyl])RARDFVAWLVAGG-NH2
modifications: N-terminus assumed
SMILES: CCCCCCCCCCCCCCCC(=O)N[C@@H](CCC(=O)NCCCC[C@H](NC(=O)[C@H](CO)NC(=O)[C@H](CC(=O)O)NC(=O)[C@H](CC(C)C)NC(=O)[C@H](Cc1ccc(O)cc1)NC(=O)[C@H](CCCCN)NC(=O)[C@H](CO)NC(=O)[C@H](Cc1ccc(O)cc1)NC(=O)[C@H](CC(=O)O)NC(=O)[C@H](CO)NC(=O)[C@@H](NC(=O)[C@H](Cc1ccccc1)NC(=O)[C@@H](NC(=O)CNC(=O)[C@H](CCC(N)=O)NC(=O)[C@H](CO)NC(=O)[C@@H](N)Cc1c[nH]cn1)[C@@H](C)O)[C@@H](C)O)C(=O)N[C@@H](CCCNC(=N)N)C(=O)N[C@@H](C)C(=O)N[C@@H](CCCNC(=N)N)C(=O)N[C@@H](CC(=O)O)C(=O)N[C@@H](Cc1ccccc1)C(=O)N[C@H](C(=O)N[C@@H](C)C(=O)N[C@@H](Cc1c[nH]c2ccccc12)C(=O)N[C@@H](CC(C)C)C(=O)N[C@H](C(=O)N[C@@H](C)C(=O)NCC(=O)NCC(N)=O)C(C)C)C(C)C)C(=O)O
For B3, the results for the cAMP EC50 (assay 1) (in the test with human GLP-1 receptor; in test [1]; with human glucagon receptor) were 0.0448 nM, 41.7 nM and 0.00704 nM, respectively.

B4: g824 (peptide)
peptide: HSQGTFTSDYSKYK([γGlu-Palmitoyl])DSRRARDFVEWLEAGG-NH2
modifications: N-terminus assumed
SMILES: CCCCCCCCCCCCCCCC(=O)N[C@@H](CCC(=O)NCCCC[C@H](NC(=O)[C@H](Cc1ccc(O)cc1)NC(=O)[C@H](CCCCN)NC(=O)[C@H](CO)NC(=O)[C@H](Cc1ccc(O)cc1)NC(=O)[C@H](CC(=O)O)NC(=O)[C@H](CO)NC(=O)[C@@H](NC(=O)[C@H](Cc1ccccc1)NC(=O)[C@@H](NC(=O)CNC(=O)[C@H](CCC(N)=O)NC(=O)[C@H](CO)NC(=O)[C@@H](N)Cc1c[nH]cn1)[C@@H](C)O)[C@@H](C)O)C(=O)N[C@@H](CC(=O)O)C(=O)N[C@@H](CO)C(=O)N[C@@H](CCCNC(=N)N)C(=O)N[C@@H](CCCNC(=N)N)C(=O)N[C@@H](C)C(=O)N[C@@H](CCCNC(=N)N)C(=O)N[C@@H](CC(=O)O)C(=O)N[C@@H](Cc1ccccc1)C(=O)N[C@H](C(=O)N[C@@H](CCC(=O)O)C(=O)N[C@@H](Cc1c[nH]c2ccccc12)C(=O)N[C@@H](CC(C)C)C(=O)N[C@@H](CCC(=O)O)C(=O)N[C@@H](C)C(=O)NCC(=O)NCC(N)=O)C(C)C)C(=O)O
Turning to B4, the cAMP EC50 (assay 1) amounted to 0.0471 nM with human GLP-1 receptor, 57.4 nM in test [1] and 0.00105 nM with human glucagon receptor.

B5: g798 (peptide)
peptide: HSQGTFTSDK([γGlu-Palmitoyl])SKYLDSERARDFVAWLEAGG-NH2
modifications: N-terminus assumed
SMILES: CCCCCCCCCCCCCCCC(=O)N[C@@H](CCC(=O)NCCCC[C@H](NC(=O)[C@H](CC(=O)O)NC(=O)[C@H](CO)NC(=O)[C@@H](NC(=O)[C@H](Cc1ccccc1)NC(=O)[C@@H](NC(=O)CNC(=O)[C@H](CCC(N)=O)NC(=O)[C@H](CO)NC(=O)[C@@H](N)Cc1c[nH]cn1)[C@@H](C)O)[C@@H](C)O)C(=O)N[C@@H](CO)C(=O)N[C@@H](CCCCN)C(=O)N[C@@H](Cc1ccc(O)cc1)C(=O)N[C@@H](CC(C)C)C(=O)N[C@@H](CC(=O)O)C(=O)N[C@@H](CO)C(=O)N[C@@H](CCC(=O)O)C(=O)N[C@@H](CCCNC(=N)N)C(=O)N[C@@H](C)C(=O)N[C@@H](CCCNC(=N)N)C(=O)N[C@@H](CC(=O)O)C(=O)N[C@@H](Cc1ccccc1)C(=O)N[C@H](C(=O)N[C@@H](C)C(=O)N[C@@H](Cc1c[nH]c2ccccc12)C(=O)N[C@@H](CC(C)C)C(=O)N[C@@H](CCC(=O)O)C(=O)N[C@@H](C)C(=O)NCC(=O)NCC(N)=O)C(C)C)C(=O)O
On to B5, for which the cAMP EC50 (assay 1) with human GLP-1 receptor came to 0.00907 nM; in test [1] it was 1.51 nM; with human glucagon receptor it was 0.00051 nM.

B6: g823 (peptide)
peptide: HSQGTFTSDYSRYLDSK([γGlu-Palmitoyl])RARDFVEWLVAGG-NH2
modifications: N-terminus assumed
SMILES: CCCCCCCCCCCCCCCC(=O)N[C@@H](CCC(=O)NCCCC[C@H](NC(=O)[C@H](CO)NC(=O)[C@H](CC(=O)O)NC(=O)[C@H](CC(C)C)NC(=O)[C@H](Cc1ccc(O)cc1)NC(=O)[C@H](CCCNC(=N)N)NC(=O)[C@H](CO)NC(=O)[C@H](Cc1ccc(O)cc1)NC(=O)[C@H](CC(=O)O)NC(=O)[C@H](CO)NC(=O)[C@@H](NC(=O)[C@H](Cc1ccccc1)NC(=O)[C@@H](NC(=O)CNC(=O)[C@H](CCC(N)=O)NC(=O)[C@H](CO)NC(=O)[C@@H](N)Cc1c[nH]cn1)[C@@H](C)O)[C@@H](C)O)C(=O)N[C@@H](CCCNC(=N)N)C(=O)N[C@@H](C)C(=O)N[C@@H](CCCNC(=N)N)C(=O)N[C@@H](CC(=O)O)C(=O)N[C@@H](Cc1ccccc1)C(=O)N[C@H](C(=O)N[C@@H](CCC(=O)O)C(=O)N[C@@H](Cc1c[nH]c2ccccc12)C(=O)N[C@@H](CC(C)C)C(=O)N[C@H](C(=O)N[C@@H](C)C(=O)NCC(=O)NCC(N)=O)C(C)C)C(C)C)C(=O)O
B6: the cAMP EC50 (assay 1) in the test with human GLP-1 receptor came out at 0.0973 nM; in test [1] it was 84.2 nM; with human glucagon receptor, 0.00948 nM.
